This assay has as its target T1, human factor H (human, UniProt P08603 19-1231).
T1 construct: Purified human factor H was used in the ELISA; also called fH; human fH
Nature of the assay: ELISA, fHbp (2 µg/ml) on plate, human factor H titrated. On the technique in general: An ELISA detects its analyte on a solid surface through an enzyme-linked reagent.

T1 sequence (P08603 19-1231 Y402H/T493R limits assumed): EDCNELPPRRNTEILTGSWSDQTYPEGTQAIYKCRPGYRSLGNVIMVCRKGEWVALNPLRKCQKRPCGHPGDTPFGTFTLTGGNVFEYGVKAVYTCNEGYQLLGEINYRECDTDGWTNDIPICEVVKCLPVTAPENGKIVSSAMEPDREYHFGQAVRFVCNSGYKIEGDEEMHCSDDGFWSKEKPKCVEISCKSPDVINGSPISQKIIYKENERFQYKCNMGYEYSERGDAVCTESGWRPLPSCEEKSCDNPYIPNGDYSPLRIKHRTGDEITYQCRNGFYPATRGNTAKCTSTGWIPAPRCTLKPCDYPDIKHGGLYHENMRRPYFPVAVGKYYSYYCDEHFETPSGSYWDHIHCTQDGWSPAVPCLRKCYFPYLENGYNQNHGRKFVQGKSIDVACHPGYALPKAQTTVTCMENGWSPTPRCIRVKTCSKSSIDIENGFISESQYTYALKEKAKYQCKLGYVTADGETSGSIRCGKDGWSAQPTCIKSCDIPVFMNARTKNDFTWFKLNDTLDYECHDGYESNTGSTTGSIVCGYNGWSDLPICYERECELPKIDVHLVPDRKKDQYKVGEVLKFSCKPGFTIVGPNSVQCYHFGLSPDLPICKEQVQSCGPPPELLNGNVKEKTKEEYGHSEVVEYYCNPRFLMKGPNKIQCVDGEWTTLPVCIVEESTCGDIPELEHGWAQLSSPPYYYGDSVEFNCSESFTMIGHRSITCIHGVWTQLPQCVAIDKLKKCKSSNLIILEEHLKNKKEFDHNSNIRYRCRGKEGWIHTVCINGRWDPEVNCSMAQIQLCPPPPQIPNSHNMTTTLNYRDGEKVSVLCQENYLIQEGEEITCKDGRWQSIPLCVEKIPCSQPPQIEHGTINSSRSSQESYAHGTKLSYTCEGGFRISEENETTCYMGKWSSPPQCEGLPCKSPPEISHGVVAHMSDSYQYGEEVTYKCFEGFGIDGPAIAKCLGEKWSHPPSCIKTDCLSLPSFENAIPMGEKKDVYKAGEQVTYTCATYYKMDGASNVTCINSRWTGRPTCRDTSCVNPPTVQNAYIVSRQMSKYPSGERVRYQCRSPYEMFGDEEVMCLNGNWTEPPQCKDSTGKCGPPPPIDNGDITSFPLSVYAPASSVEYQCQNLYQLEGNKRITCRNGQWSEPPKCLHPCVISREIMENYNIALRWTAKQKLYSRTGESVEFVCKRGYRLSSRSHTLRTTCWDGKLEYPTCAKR

B1: fHbp ID 79 H223R mutant (other)
chain: CSSGGGGSGSGGVAADIGTGLADALTTPLDHKDKGLKSLTLEDSIPQNGTLTLSAQGAEKTFKAGDKDNSLNTGKLKNDKISRFDFVQKIEVDGQTITLASGEFQIYKQDHSAVVALQIEKINNPDKIDSLINQRSFLVSGLGGEHTAFNQLPGGKAEYHGKAFSSDDAGGKLTYTIDFAAKQGHGKIEHLKTPEQNVELASAELKADEKSHAVILGDTRYGSEEKGTYRLALFGDRAQEIAGSATVKIGEKVHEIGIAGKQ
notes: Purified recombinant mutant
B1: the binding result is given as “no binding (tested: human factor H 0.0012 to 20 µg/ml)”.
